In patent US20210054067A1 (ALETHIA BIOTHERAPEUTICS, published 2021):

T1: recombinant human KAAG1 (purified protein) (human, UniProt Q9UBP8 1-84, limits assumed)
T1 construct: also called gel filtration purified KAAG1
T1 sequence: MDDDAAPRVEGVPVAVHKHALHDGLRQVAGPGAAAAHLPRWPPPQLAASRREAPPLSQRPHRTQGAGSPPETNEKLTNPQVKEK


Target: T1, recombinant human KAAG1 (purified …)
Assay: surface plasmon resonance (told in the summary)

Kd [nM]	fold lower affinity than 3A4 [fold]	Binder
> 200	20	3G10 anti-KAAG1 antibody (antibody, V domains shown) VH: EIQLQQSGPELVKPGASVKISCKASGYTFTDNYMNWVKQSHGKSLEWIGDINPYYGTTTYNQKFKGKATLTVDKSSRTAYMELRGLTSEDSAVYYCARDDWFDYWGQGTLVTVSA VL: DVLMTQTPRSLSVSLGDQASISCRSSQSLLHSNGNTYLEWYLQKPGQPPKVLIYKVSNRFSGVPDRFSGSGSGTDFTLKISGVEAEDLGVYYCFQGSHVPLTFGAGTKLELK
> 200	20	3D3 anti-KAAG1 antibody (chimeric 3D3) (antibody, V domains shown) VH: EVQLQQSVAELVRPGASVTLSCKASGYIFTDYEIHWVKQTPVHGLEWIGVIDPETGNTAFNQKFKGKATLTADISSSTAYMELSSLTSEDSAVYYCMGYSDYWGQGTTLTVSS VL: DIVMTQSPSSLAVSIGQKVTMNCKSSQSLLNSNFQKNFLAWYQQKPGQSPKLLIYFASTRESSIPDRFIGSGSGTDFTLTISSVQAEDLADYFCQQHYSTPLTFGAGTKLELK

Target: T1, recombinant human KAAG1 (purified …)
Assay: SPR (ProteOn XPR36)
Protocol: Remaining active groups were quenched by a 300 s injection of 1M ethanolamine at 30 μL/min in the analyte direction, and this also ensures mock-activated interspots are created for blank referencing. The screening of the 3A4 variants for binding to KAAG1 occurred in two steps: an indirect capture of 3A4 variants from cell supernatant onto the anti-human IgG Fc fragment specific surface in the ligand direction (vertical) followed by a KAAG1 injection in the analyte direction. Firstly, one buffer injection for 30 s at 100 uL/min in the ligand direction was used to stabilize the baseline. […] Four to five 3A4 variants along with wild-type 3A4 were simultaneously injected in individual ligand channels for 240 s at flow 25 μL/min. […] The first ligand channel was left empty to use as a blank control if required. […]
Sensorgrams were aligned and double-referenced using the buffer blank injection and interspots, and the resulting sensorgrams were analyzed using ProteOn Manager software v3.0. The kinetic and affinity values were determined by fitting the referenced sensorgrams to the 1:1 Langmuir binding model using local Rₘₐₓ, and affinity constants (KD M) were derived from the resulting rate constants (kd s⁻¹/kₐ M⁻¹s⁻¹).

fold difference in binding affinity against the best variant H4L2 [fold]	Binder
4	humanized 3A4 antibody Lh1Hh1 (antibody, human IgG1, kappa, V domains shown, 100% humanized frameworks; human IgG1 kappa; also called H1L1) VH: QVQLVQSGAEVKKPGASVKVSCKASGYTFTDDYMSWVRQAPGQGLEWMGDINPYNGDTNYNQKFKGRVTITADTSTSTAYMELSSLRSEDTAVYYCARDPGAMDYWGQGTLVTVSS VL: DIVMTQTPLSLPVTPGEPASISCRSSQSLLHSNGNTYLEWYLQKPGQSPQLLIYTVSNRFSGVPDRFSGSGSGTDFTLKISRVEAEDVGVYYCFQGSHVPLTFGQGTKLEIKR

Target: T1, recombinant human KAAG1 (purified …)
Assay: SPR as above; KD relative to LcHc
Protocol: Immediately after the activation, a 13 μg/mL solution of anti-human IgG Fc fragment specific in 10 mM NaOAc pH 4.5 was injected in the analyte direction at a flow rate of 25 μL/min until approximately 8000 resonance units (RUs) were immobilized. Remaining active groups were quenched by a 300 s injection of 1M ethanolamine at 30 μL/min in the analyte direction, and this also ensures mock-activated interspots are created for blank referencing. The screening of the 3A4 variants for binding to KAAG1 occurred in two steps: an indirect capture of 3A4 variants from cell supernatant onto the anti-human IgG Fc fragment specific surface in the ligand direction (vertical) followed by a KAAG1 injection in the analyte direction. Firstly, one buffer injection for 30 s at 100 uL/min in the ligand direction was used to stabilize the baseline. […] Four to five 3A4 variants along with wild-type 3A4 were simultaneously injected in individual ligand channels for 240 s at flow 25 μL/min. […] The first ligand channel was left empty to use as a blank control if required. This 3A4 capture step was immediately followed by two buffer injections in the analyte direction to stabilize the baseline, and then the gel filtration purified KAAG1 was injected. For a typical screen, five KAAG1 concentrations (8, 2.66, 0.89, 0.29, and 0.098 nM) and buffer control were simultaneously injected in individual analyte channels at 50 μL/min for 120 s with a 600 s dissociation phase, resulting in a set of binding sensorgrams with a buffer reference for each of the captured 3A4 variants. The anti-human IgG Fc fragment specific—3A4 complexes were regenerated by a 18 s pulse of 0.85% phosphoric acid for 18 s at 100 μL/min to prepare the anti-human IgG Fc fragment specific surface for the next injection cycle.
Sensorgrams were aligned and double-referenced using the buffer blank injection and interspots, and the resulting sensorgrams were analyzed using ProteOn Manager software v3.0.

Fold diff. [fold]	Binder
13.2	humanized 3A4 antibody Lh1Hh2 (antibody, human IgG1, kappa, V domains shown, human IgG1 kappa) VH: QIQLVQSGAEVKKPGASVKVSCKASGYTFTDDYMSWVRQAPGQGLEWMGDINPYNGDTNYNQKFKGRVTITADKSTSTAYMELSSLRSEDTAVYYCARDPGAMDYWGQGTLVTVSS VL: DIVMTQTPLSLPVTPGEPASISCRSSQSLLHSNGNTYLEWYLQKPGQSPQLLIYTVSNRFSGVPDRFSGSGSGTDFTLKISRVEAEDVGVYYCFQGSHVPLTFGQGTKLEIKR
6.4	humanized 3A4 antibody Lh2Hh4 (antibody, human IgG1, kappa, V domains shown, human IgG1 kappa; 10 mouse framework residues retained; also called H4L2) VH: QIQLVQSGAEVKKPGASVKVSCKASGYTFTDDYMSWVKQAPGQGLEWIGDINPYNGDTNYNQKFKGKATLTVDKSTSTAYMELSSLRSEDTAVYYCARDPGAMDYWGQGTLVTVSS VL: DVVMTQTPLSLPVTPGEPASISCRSSQSLLHSNGNTYLEWYLQKPGQSPKLLIYTVSNRFSGVPDRFSGSGSGTDFTLKISRVEAEDVGVYYCFQGSHVPLTFGQGTKLEIKR
29.6	humanized 3A4 antibody Lh1Hh1 (antibody, human IgG1, kappa, V domains shown, 100% humanized frameworks; human IgG1 kappa; also called H1L1) VH: QVQLVQSGAEVKKPGASVKVSCKASGYTFTDDYMSWVRQAPGQGLEWMGDINPYNGDTNYNQKFKGRVTITADTSTSTAYMELSSLRSEDTAVYYCARDPGAMDYWGQGTLVTVSS VL: DIVMTQTPLSLPVTPGEPASISCRSSQSLLHSNGNTYLEWYLQKPGQSPQLLIYTVSNRFSGVPDRFSGSGSGTDFTLKISRVEAEDVGVYYCFQGSHVPLTFGQGTKLEIKR
15.3	humanized 3A4 antibody Lh2Hh2 (antibody, human IgG1, kappa, V domains shown, human IgG1 kappa) VH: QIQLVQSGAEVKKPGASVKVSCKASGYTFTDDYMSWVRQAPGQGLEWMGDINPYNGDTNYNQKFKGRVTITADKSTSTAYMELSSLRSEDTAVYYCARDPGAMDYWGQGTLVTVSS VL: DVVMTQTPLSLPVTPGEPASISCRSSQSLLHSNGNTYLEWYLQKPGQSPKLLIYTVSNRFSGVPDRFSGSGSGTDFTLKISRVEAEDVGVYYCFQGSHVPLTFGQGTKLEIKR
14.3	humanized 3A4 antibody Lh2Hh3 (antibody, human IgG1, kappa, V domains shown, human IgG1 kappa) VH: QIQLVQSGAEVKKPGASVKVSCKASGYTFTDDYMSWVRQAPGQGLEWIGDINPYNGDTNYNQKFKGRATLTVDKSTSTAYMELSSLRSEDTAVYYCARDPGAMDYWGQGTLVTVSS VL: DVVMTQTPLSLPVTPGEPASISCRSSQSLLHSNGNTYLEWYLQKPGQSPKLLIYTVSNRFSGVPDRFSGSGSGTDFTLKISRVEAEDVGVYYCFQGSHVPLTFGQGTKLEIKR
21.3	humanized 3A4 antibody Lh2Hh1 (antibody, human IgG1, kappa, V domains shown, human IgG1 kappa) VH: QVQLVQSGAEVKKPGASVKVSCKASGYTFTDDYMSWVRQAPGQGLEWMGDINPYNGDTNYNQKFKGRVTITADTSTSTAYMELSSLRSEDTAVYYCARDPGAMDYWGQGTLVTVSS VL: DVVMTQTPLSLPVTPGEPASISCRSSQSLLHSNGNTYLEWYLQKPGQSPKLLIYTVSNRFSGVPDRFSGSGSGTDFTLKISRVEAEDVGVYYCFQGSHVPLTFGQGTKLEIKR
9.3	humanized 3A4 antibody Lh1Hh3 (antibody, human IgG1, kappa, V domains shown, human IgG1 kappa) VH: QIQLVQSGAEVKKPGASVKVSCKASGYTFTDDYMSWVRQAPGQGLEWIGDINPYNGDTNYNQKFKGRATLTVDKSTSTAYMELSSLRSEDTAVYYCARDPGAMDYWGQGTLVTVSS VL: DIVMTQTPLSLPVTPGEPASISCRSSQSLLHSNGNTYLEWYLQKPGQSPQLLIYTVSNRFSGVPDRFSGSGSGTDFTLKISRVEAEDVGVYYCFQGSHVPLTFGQGTKLEIKR
9.3	humanized 3A4 antibody Lh1Hh4 (antibody, human IgG1, kappa, V domains shown, human IgG1 kappa) VH: QIQLVQSGAEVKKPGASVKVSCKASGYTFTDDYMSWVKQAPGQGLEWIGDINPYNGDTNYNQKFKGKATLTVDKSTSTAYMELSSLRSEDTAVYYCARDPGAMDYWGQGTLVTVSS VL: DIVMTQTPLSLPVTPGEPASISCRSSQSLLHSNGNTYLEWYLQKPGQSPQLLIYTVSNRFSGVPDRFSGSGSGTDFTLKISRVEAEDVGVYYCFQGSHVPLTFGQGTKLEIKR
